# Measured values from the supplement of paper PMC7125110.
# ± gives the standard error. For some assays here: Variants at the floor of the assay were thinned out.
# B1: glmS ribozyme (parent)
# chain: AUAAAAGCGCCAGAACUACAGAAAUGUAGUUGACGAGGAGGAGGUUUAUCGAAUUUUCGGCGGAUGCCUCCAAA
# Columns and labels:
# Details in all cases: with glucosamine-6-phosphate
# glucosamine-6-phosphate [1] = variants of: B1; assay: kcat; higher = faster cleavage; RNA array
# Method in brief: (§1)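 Tracking of barcoded ribozyme variants used a hybridised Cy3 probe at 37 °C, after in situ transcription by E. coli RNA polymerase on sequenced MiSeq chips. The flowed solution held 40 μM to 10 mM glucosamine-6-phosphate in HEPES/KCl/Mg(OAc)2 buffer, and imaging ran over ~14 h. kobs was taken from exponential decay fits of normalised per-tile medians, and kcat and KM from weighted Michaelis–Menten fits.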
# glucosamine-6-phosphate [2] = variants of: B1; assay: self-cleavage kobs at 160 uM GlcN6P; higher = faster cleavage; RNA array
# Method in brief: as §1
# glucosamine-6-phosphate [3] = variants of: B1; assay: self-cleavage kobs at 640 uM GlcN6P; higher = faster cleavage; RNA array
# Method in brief: as §1
# glucosamine-6-phosphate [4] = variants of: B1; assay: self-cleavage kobs at 2500 uM GlcN6P; higher = faster cleavage; RNA array
# Method in brief: as §1
# glucosamine-6-phosphate [5] = variants of: B1; assay: self-cleavage kobs at 10000 uM GlcN6P; higher = faster cleavage; RNA array
# Method in brief: as §1
# glucosamine-6-phosphate [6] = variants of: B1; assay: KM; higher = weaker cofactor use; RNA array
# Method in brief: as §1
# glucosamine-6-phosphate [7] = variants of: B1; assay: self-cleavage kobs at 40 uM GlcN6P; higher = faster cleavage; RNA array
# Method in brief: as §1
Variant,kcat (glucosamine-6-phosphate [1]) [s⁻¹],self-cleavage kobs at 160 uM GlcN6P (glucosamine-6-phosphate [2]) [s⁻¹],self-cleavage kobs at 640 uM GlcN6P (glucosamine-6-phosphate [3]) [s⁻¹],self-cleavage kobs at 2500 uM GlcN6P (glucosamine-6-phosphate [4]) [s⁻¹],self-cleavage kobs at 10000 uM GlcN6P (glucosamine-6-phosphate [5]) [s⁻¹],KM (glucosamine-6-phosphate [6]) [µM],self-cleavage kobs at 40 uM GlcN6P (glucosamine-6-phosphate [7]) [s⁻¹]
G32A A53C,0.00145 ± 0.00063,8.36e-05 ± 1.6e-05,0.000126 ± 1.8e-05,0.0004 ± 7.3e-05,0.000944 ± 0.00012,–,–
U30G U55C,0.00519 ± 0.00037,–,0.00192 ± 0.00068,0.00363 ± 0.00086,0.00502 ± 0.00092,883 ± 120,0.000236 ± 5e-05
C61A,< 1e-05,–,–,–,–,–,–
G37C C50U,< 1e-05,–,–,–,< 1e-05,–,–
A15G G32A C70G,9.72e-05 ± 1.2e-05,0.000115 ± 3.5e-05,0.000107 ± 2.6e-05,7.81e-05 ± 3e-05,9.41e-05 ± 1.1e-05,–,–
G13A A39C,0.000118 ± 1.9e-05,–,–,4.55e-05 ± 7.4e-06,8.77e-05 ± 1.6e-05,3740 ± 1200,–
A53G U65A,0.00318 ± 0.00053,0.000257 ± 5e-05,0.00114 ± 0.00019,0.00184 ± 0.00046,0.00272 ± 0.00056,1530 ± 350,8.56e-05 ± 1.5e-05
C50A U56G,< 1e-05,–,–,–,–,–,–
A12C A14U C16U U46G,3.1e-05 ± 6.8e-06,–,–,–,–,–,–
G29U C50A G60U,1e-05 ± 4.9e-06,–,–,< 1e-05,–,–,–
G32U A36C,< 1e-05,–,–,< 1e-05,< 1e-05,–,–
C50U C61G,1.39e-05 ± 3.3e-06,–,–,–,–,–,–
G13C U56A,0.000106 ± 6.7e-06,–,–,4.38e-05 ± 7.3e-06,7.93e-05 ± 9.5e-06,3410 ± 530,–
U55A U65C C67A,0.000108 ± 1.2e-05,–,8.44e-05 ± 2.9e-05,8.42e-05 ± 2.6e-05,0.000114 ± 2.4e-05,–,–
U49G G59A,< 1e-05,< 1e-05,–,–,–,–,< 1e-05
U46C U54C,0.00487 ± 0.00041,0.000406 ± 8.6e-05,0.00119 ± 0.00012,0.0028 ± 0.00042,0.00438 ± 0.0011,1870 ± 220,0.000109 ± 2e-05
G66C C67A,0.000183 ± 3e-05,–,3.04e-05 ± 1.2e-05,0.000107 ± 1.6e-05,0.000137 ± 2.5e-05,2370 ± 860,–
U30G U56G,0.00526 ± 0.0018,–,0.00189 ± 0.00062,0.00266 ± 0.00073,0.00705 ± 0.0016,–,0.000182 ± 3.7e-05

Variant,kcat (glucosamine-6-phosphate [1]) [s⁻¹],self-cleavage kobs at 160 uM GlcN6P (glucosamine-6-phosphate [2]) [s⁻¹],self-cleavage kobs at 640 uM GlcN6P (glucosamine-6-phosphate [3]) [s⁻¹],self-cleavage kobs at 2500 uM GlcN6P (glucosamine-6-phosphate [4]) [s⁻¹],self-cleavage kobs at 10000 uM GlcN6P (glucosamine-6-phosphate [5]) [s⁻¹],KM (glucosamine-6-phosphate [6]) [µM],self-cleavage kobs at 40 uM GlcN6P (glucosamine-6-phosphate [7]) [s⁻¹]
G32A U46G,0.000631 ± 7.4e-05,–,9.72e-05 ± 1.8e-05,0.000303 ± 5.6e-05,0.000468 ± 6.8e-05,3220 ± 660,–
A15C C16A C70U C71U,2.86e-05 ± 3.8e-06,–,–,2.89e-05 ± 1.3e-05,–,–,–
U31C A53C,0.00137 ± 0.00011,0.00011 ± 3.6e-05,0.00028 ± 8e-05,0.0007 ± 0.00011,0.00116 ± 0.0002,2260 ± 350,–
U31C G59U C68A,3.76e-05 ± 1.6e-05,–,–,–,–,–,–
U46A U56G,0.00195 ± 0.00071,9.87e-05 ± 1.5e-05,0.000283 ± 6.8e-05,0.000603 ± 0.00011,0.00183 ± 0.00029,–,–
G13A G40U,8.11e-05 ± 1e-05,–,–,4.21e-05 ± 8.5e-06,6.21e-05 ± 8.8e-06,2810 ± 990,< 1e-05
A39U A52U,0.000201 ± 4.1e-05,–,–,9.27e-05 ± 1.2e-05,0.000141 ± 1.1e-05,3930 ± 1900,–
G13U U55A,0.00182 ± 0.00037,8.82e-05 ± 1.7e-05,0.000214 ± 4e-05,0.000853 ± 0.00015,0.00135 ± 0.00013,3540 ± 1200,3.28e-05 ± 7.2e-06
G41A A48C,1.6e-05 ± 1.9e-06,–,< 1e-05,–,–,2350 ± 1000,< 1e-05
G13A U30C,0.000676 ± 0.00014,–,0.000158 ± 3.2e-05,0.000511 ± 9.2e-05,0.00051 ± 9.1e-05,2010 ± 830,–
A33C G41U,< 1e-05,–,< 1e-05,–,–,–,–
A12U G41U,0.0013 ± 0.00058,0.00041 ± 5.1e-05,0.000814 ± 8.1e-05,0.00212 ± 0.00022,–,–,0.000239 ± 2.1e-05
U31C U56C,0.00169 ± 0.00055,9.03e-05 ± 1.1e-05,0.000331 ± 5.8e-05,0.000644 ± 0.00011,0.00171 ± 0.00034,2910 ± 1200,–
A15C G29A,0.0015 ± 0.00014,–,0.000137 ± 2.3e-05,0.000429 ± 9.7e-05,0.000924 ± 0.00012,6270 ± 870,–
U55G G66C,0.000625 ± 0.00013,–,0.000216 ± 4.5e-05,0.000325 ± 7e-05,0.000624 ± 0.0001,–,–
U47C A53C,0.00196 ± 0.00041,–,0.000497 ± 0.00012,0.00163 ± 0.00044,0.00173 ± 0.00032,1380 ± 440,6.18e-05 ± 1.1e-05
U31G U45A A52G,0.000908 ± 0.00012,–,–,0.000361 ± 0.00013,0.000604 ± 8.7e-05,4890 ± 1500,–
A14U G43A,4.42e-05 ± 1.9e-05,–,–,–,–,–,–
